Reference: US20250332278A1, “MULTIVALENT DISPLAY OF APOAI PEPTIDE ON NANOPARTICLES AGAINST ATHEROSCLEROSIS” (The Regents of the University of California, priority 2022, published 2025)

Key:
[1] = Dynamic light scattering of VLP/VNP conjugates; assay type: physicochemical; conditions: 1 mg/mL in 0.01 M KP buffer
Procedure: Dynamic Light Scattering (DLS). The hydrodynamic diameter of VLPs/VNPs conjugates were probed using a Zetasizer Nano ZSP/Zen5600 instrument (Malvern Panalytical, Malvern, UK). Particle hydrodynamic diameter was calculated as the weighted mean of the intensity distribution and samples were analyzed at 1 mg/mL concentration in 0.01 M KP buffer.

[2] = system: J774 foam cells (ABCA1-mediated cholesterol efflux); assay: J774 cholesterol efflux assay; assay type: cell-based
Procedure: J774 Cholesterol efflux assay. Cholesterol efflux was measured from J774 cells (ATCC) as previously described.^23 Briefly, J774 cells were seeded in 96-well plates at 1×10^5 cells/100 μL in DMEM (Corning) with 10% (v/v) fetal bovine serum (FBS) and 1% (w/v) penicillin-streptomycine (P/S). Cells were incubated until they reached ˜80% confluence. After two rinses with FBS-free DMEM containing 1% (w/v) P/S they were incubated for 48 h in 200 μL FBS-free DMEM containing 40 μg/mL acetylated low-density lipoprotein (AcLDL), 2 μg/mL Sandoz inhibitor, 1% (w/v) P/S, and 5% (v/v) human lipoprotein-deficient serum (LPDS) to produce foam cells. Excess lipids were removed by two rinses as above, and foam cells were equilibrated for 12 h in 200 μL FBS-free DMEM, 2 μg/mL Sandoz inhibitor, 0.3 mM CPT-cAMP, 1% (w/v) P/S, and 5% (v/v) human LPDS. After two further rinses, cholesterol efflux was initiated by adding different VLP/VNP or peptide treatments in FBS-free DMEM containing 1% (w/v) P/S and 5% (v/v) human LPDS and incubating for 15 h. The medium was then collected, centrifuged (1000×g, 10 min, 4° C.) and the cholesterol content of the supernatant was determined using the Amplex assay kit. Cells were washed three times with ice-cold PBS, lysed using 200 μL of Cytobuster lysis buffer, and the cholesterol content of the lysate was determined using the Amplex assay kit. Cholesterol efflux was calculated by dividing the amount of cholesterol in the medium by the total cholesterol content of the medium and lysate.

SVEC cells [3] = assay: Wound healing assay under oxidative stress; assay type: cell-based; conditions: 0.5 μM, 8-h treatment, 4-h 50 μg/mL ox-LDL, versus control (serum-free medium)
Procedure: Wound healing assay. SVEC cell migration was investigated using a Radius 96-well kit (Cell Bio Labs). Applicant seeded 3×10^4 cells in 200 μL DMEM per well and allowed the cells to reach ˜80% confluence. After removing the Radius Gel, cells were allowed to migrate for 24 h in the presence of various treatments. Bright-field phase contrast images were acquired after 0, 12 and 24 h using an EVOS FL microscope fitted with a 10× objective (n=6 cells per group). Percentage wound closure was calculated by tracing the wound perimeter in ImageJ to calculate the area at t=12 or 24 h and dividing by the initial starting area at t=0 h.
Applicant therefore evaluated the effect of T-4FN on wound healing using SVEC cells.

[4] = molecular target: ATP-binding cassette transporter A1 (ABCA1) on J774 foam cells (UniProt P41233); assay: cell-based or functional assay
SVEC cells [5] = assay: ROS assay; assay type: cell-based; conditions: 8 h treatment (0.5 μM particles or matched free peptide), then ox-LDL 4 h
Procedure: ROS assay. SVEC cells (ATCC) were seeded in four-compartment 35-mm CELLview glass-bottom dishes or 96-well plates at 6×10^4 cells/mL in 500 μL DMEM and were allowed to reach ˜80% confluence. The medium was then removed, and the cells were washed once with PBS before incubation with VLPs/VNPs for 8 h. Applicant then added 100 μg/mL ox-LDL for 4 h to induce oxidative stress and detected ROS using a CellROX Green Reagent Kit. Images were captured using a Nikon AiR confocal microscope with a 20×, 0.75 numerical aperture dry objective.

J774 foam cells = assay: TMV-ApoAI distribution during cholesterol efflux from J774 foam cells (confocal fluorescence microscopy); assay type: cell-based; conditions: 0.5 μM 5FAM-labeled particles, 12 h
Procedure: TMV-ApoAI distribution during cholesterol efflux from J774 foam cells. Applicant seeded 1×10^5 J774 cells in 500 μL DMEM containing 10% (v/v) FBS and 1% (w/v) P/S into each zone of a four-compartment 35-mm CELLview glass-bottom dish, and allowed them to reach ˜80% confluence. Cells were rinsed twice with 500 μL FBS-free DMEM containing 1% (w/v) P/S and incubated for 48 h in 200 μL FBS-free DMEM containing 40 μg/mL of fluorescence-labeled acetylated low-density lipoprotein (Dil-AcLDL), 2 μg/mL Sandoz inhibitor, 1% (w/v) P/S, and 5% (v/v) human LPDS to produce labeled foam cells. After two rinses as above, foam cells were equilibrated for 12 h in 200 μL FBS-free DMEM containing 2 μg/mL Sandoz inhibitor, 0.3 mM CPT-cAMP, 1% (w/v) P/S, and 5% (v/v) human LPDS. After two further rinses, the cells were treated with 100 μL of 5FAM-labeled treatments and controls in FBS-free DMEM containing 1% (w/v) P/S and 5% (v/v) human LPDS. After 12 h, the cells were washed twice with 500 μL PBS and then fixed for 10 minutes at room temperature using a PBS solution containing 10% (w/v) PFA, 25% (w/v) glutaraldehyde. Cells were then twice washed with PBS and subsequently stained for 45 min with 300 μL of wheat-germ agglutinin AlexaFluor 647 (WGA-647) prepared in PBS and 5% (v/v) goat serum at a 1:500 dilution. Cells were then twice washed with PBS and then stained with 300 μL DAPI dye (5 μg/mL in PBS) for 20 min. Cells were washed twice with PBS and then imaged using a Nikon AiR confocal microscope with a 20×, 0.75 numerical aperture dry objective.
A fluorescently labeled T-4FN-5FAM was used to promote cholesterol efflux from fluorescently-labeled foam cells (FIG. 5A and FIG. 15B). Cholesterol and T-4FN-5FAM fluorescence was quantified using Nikon AR Elements Analysis software's 3D volume viewer tool and plotted in a bar graph (FIG. 5C and FIG. 5D).

[6] = BODIPY-cholesterol binding assay (DLS and fluorescence); conditions: for PDI after incubation with BODIPY-cholesterol / Zav after incubation with BODIPY-cholesterol: 20 uM BODIPY-cholesterol; for PDI after incubation with BODIPY-cholesterol: 2 h at 37° C.; for size change / cholesterol binding on incubation with BODIPY-cholesterol: relative to cholesterol-free controls
Procedure: BODIPY-Cholesterol Binding assay. A fluorescent cholesterol, BODIPY-cholesterol or 23-(dipyrrometheneboron difluoride)-24-norcholesterol was used to examine the HDL biomimics' ability to uptake cholesterol. VNP samples (500 μg) and equimolar HDL were incubated with 20 uM BODIPY-cholesterol for 2 hours at 37° C. on a shaker at 150 rpm in 0.5 mL of 10 mM KP/DMSO. After incubation, samples were purified by centrifuge using 100 kDa molecular-weight cutoff Amicon spin-filters to remove free, unbound cholesterol. Samples were analyzed for size on DLS (see above) and fluorescence before and after BODIPY-cholesterol binding using 480/508 nm excitation/emission parameters on a Tecan Plate Reader.
To investigate the ability of the TMV particles to bind cholesterol, Applicant mixed them with fluorescent BODIPY cholesterol for 2 h at 37° C. in 0.01M KP/DMSO (50:50).
The cholesterol-bound nanoparticles were separated from free cholesterol by centrifugation in spin filters with a 100-kDa cutoff. Samples without cholesterol were incubated as a negative control. Purified fractions were analyzed by DLS and fluorimetry.

UniProt P41233, sequence (P41233 whole entry): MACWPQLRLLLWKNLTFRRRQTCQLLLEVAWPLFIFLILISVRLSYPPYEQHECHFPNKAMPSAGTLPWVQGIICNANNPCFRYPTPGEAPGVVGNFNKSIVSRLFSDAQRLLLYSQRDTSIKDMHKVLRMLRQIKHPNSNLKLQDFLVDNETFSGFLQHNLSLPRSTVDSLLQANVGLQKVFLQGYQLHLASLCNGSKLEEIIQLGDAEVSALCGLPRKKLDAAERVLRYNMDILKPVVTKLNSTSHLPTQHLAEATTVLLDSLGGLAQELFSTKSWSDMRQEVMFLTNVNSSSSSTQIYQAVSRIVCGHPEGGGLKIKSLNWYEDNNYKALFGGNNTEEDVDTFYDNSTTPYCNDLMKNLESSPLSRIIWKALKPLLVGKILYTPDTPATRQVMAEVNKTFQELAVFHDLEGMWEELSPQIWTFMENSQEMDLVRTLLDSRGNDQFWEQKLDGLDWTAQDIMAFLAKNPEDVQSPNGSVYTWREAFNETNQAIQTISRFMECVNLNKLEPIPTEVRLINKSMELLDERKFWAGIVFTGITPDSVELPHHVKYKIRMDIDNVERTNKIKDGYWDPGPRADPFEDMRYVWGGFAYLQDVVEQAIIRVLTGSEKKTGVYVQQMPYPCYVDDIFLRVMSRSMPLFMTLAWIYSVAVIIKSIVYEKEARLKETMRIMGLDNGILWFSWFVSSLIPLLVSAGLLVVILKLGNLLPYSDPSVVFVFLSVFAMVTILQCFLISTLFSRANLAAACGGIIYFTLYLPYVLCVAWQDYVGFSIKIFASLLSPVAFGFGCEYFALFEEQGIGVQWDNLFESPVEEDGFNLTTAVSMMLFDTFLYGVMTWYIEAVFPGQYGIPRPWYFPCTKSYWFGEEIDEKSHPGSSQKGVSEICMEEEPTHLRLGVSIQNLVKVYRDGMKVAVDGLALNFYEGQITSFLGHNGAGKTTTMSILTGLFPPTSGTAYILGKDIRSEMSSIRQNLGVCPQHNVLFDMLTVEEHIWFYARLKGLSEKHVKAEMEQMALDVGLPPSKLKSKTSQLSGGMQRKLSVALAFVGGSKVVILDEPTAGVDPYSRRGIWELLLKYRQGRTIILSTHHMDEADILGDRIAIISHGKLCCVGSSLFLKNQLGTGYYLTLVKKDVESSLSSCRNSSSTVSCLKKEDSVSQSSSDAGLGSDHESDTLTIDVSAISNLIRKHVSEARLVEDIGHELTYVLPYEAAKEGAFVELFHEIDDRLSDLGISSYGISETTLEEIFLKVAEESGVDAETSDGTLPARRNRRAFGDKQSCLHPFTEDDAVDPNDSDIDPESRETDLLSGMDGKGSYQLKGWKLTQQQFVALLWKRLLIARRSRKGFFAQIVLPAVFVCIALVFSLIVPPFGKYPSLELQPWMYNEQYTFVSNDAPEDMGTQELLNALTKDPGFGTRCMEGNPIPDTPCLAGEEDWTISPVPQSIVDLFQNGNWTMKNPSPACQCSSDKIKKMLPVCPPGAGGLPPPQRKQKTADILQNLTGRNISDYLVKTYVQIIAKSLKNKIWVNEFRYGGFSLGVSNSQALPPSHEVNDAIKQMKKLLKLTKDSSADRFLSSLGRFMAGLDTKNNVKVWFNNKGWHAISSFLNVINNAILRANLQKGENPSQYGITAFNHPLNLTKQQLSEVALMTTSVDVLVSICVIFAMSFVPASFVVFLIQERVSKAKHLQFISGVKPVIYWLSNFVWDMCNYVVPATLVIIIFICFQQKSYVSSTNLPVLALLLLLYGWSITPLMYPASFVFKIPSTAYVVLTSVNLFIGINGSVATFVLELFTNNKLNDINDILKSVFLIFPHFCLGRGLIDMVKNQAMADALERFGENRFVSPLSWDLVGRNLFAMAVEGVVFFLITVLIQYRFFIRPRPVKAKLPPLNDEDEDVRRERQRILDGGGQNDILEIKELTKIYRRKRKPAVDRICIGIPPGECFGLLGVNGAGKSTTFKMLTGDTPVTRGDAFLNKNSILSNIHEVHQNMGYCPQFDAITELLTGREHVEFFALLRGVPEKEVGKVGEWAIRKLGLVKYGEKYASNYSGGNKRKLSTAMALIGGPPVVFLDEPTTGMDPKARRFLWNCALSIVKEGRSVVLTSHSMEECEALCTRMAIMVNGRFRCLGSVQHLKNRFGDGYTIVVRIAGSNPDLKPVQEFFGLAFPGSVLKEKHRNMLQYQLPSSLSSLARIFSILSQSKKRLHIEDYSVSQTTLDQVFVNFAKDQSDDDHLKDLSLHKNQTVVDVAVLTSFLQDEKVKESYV

Molecule: Qβ: 30-nm spherical virus-like particle with 180 identical coat protein units (SEQ ID NO: 6)
- PDI (DLS) [1]: 0.06
- Zav (hydrodynamic diameter, DLS) [1]: ~30.4 nm

Molecule: CSGGGDWFKAFYDKVAEKFKEAF [4FN]
- cholesterol efflux ([2]; upregulated ABCA1 conditions): most potent peptide
- increase in wound closure after 24 h (SVEC cells [3]): 3.20 fold

Molecule: TMV-4FN conjugate (TMV-Lys nanoparticle displaying ApoAI peptide 4FN through an SM(PEG)4 linker) (from UniProt P69687 2-157)
- cholesterol efflux from J774 foam cells under upregulated ABCA1 conditions (fold (against TMV-4FC)) [4]: 2.5

Molecule: CGVLESFKASFLSALEEWTKKLQ [23MJ]
- ROS production (mitigation) (SVEC cells [5]): did not mitigate ROS

B1: TMV (protein)
chain: MSYSITTPSQFVFLSSAWADPIELINLCTNALGNQFQTQQARTVVQRQFSEVWKPSPQVTVRFPDSDFKVYRYNAVLDPLVTALLGAFDTRNRIIEVENQANPTTAETLDATRRVDDATVAIRSAINNLIVELIRGTGSYNRSSFESSSGLVWTSGPK
- PDI (DLS) [1]: 0.230
- Zav (hydrodynamic diameter, DLS) [1]: ~203.1 nm
- Dil-LDL cholesterol fluorescence intensity (cell-associated) (J774 foam cells): promotes a baseline level of cholesterol efflux
- localization of particles on foam cells (J774 foam cells): mostly observed within the foam cells
- PDI after incubation with BODIPY-cholesterol [6]: 0.158
- Zav after incubation with BODIPY-cholesterol ([6]; 2 h at 37° C. in 0.01M KP/DMSO): 293.6 nm
- PDI before incubation with BODIPY-cholesterol ([6]; cholesterol-free control): 0.240
- size change / cholesterol binding on incubation with BODIPY-cholesterol [6]: inherent affinity for cholesterol
- increase in wound closure after 12 h (SVEC cells [3]): 2.58 fold
- increase in wound closure after 24 h (SVEC cells [3]): 3.15 fold

B2: T-4FN: TMV-Lys nanoparticle with 4FN ApoAI peptide conjugated to surface lysines via SM(PEG)4 maleimide-thiol chemistry (conjugate)
chain: SYSITTPSQFVFLSSAWADPIELINLCTNALGNQFQTQQARTVVQRQFSEVWKPSPQVTVRFPDSDFKVYRYNAVLDPLVTALLGAFDTRNRIIEVENQANPTTAETLDATRRVDDATVAIRSAINNLIVELIRGTGSYNRSSFESSSGLVWTSGPK
peptide: CSGGGDWFKAFYDKVAEKFKEAF
- PDI (DLS) [1]: 0.266
- Zav (hydrodynamic diameter, DLS) [1]: ~255.8 nm
- cholesterol efflux when ABCA1 receptor is not upregulated ([2]; homeostatic ABCA1 conditions, FIG. 4D): drastically decreases
- cholesterol efflux potency relative to TMV-4FC ([2]; upregulated ABCA1 conditions, FIGS. 4B-4C): ~2.5 fold
- Dil-LDL cholesterol fluorescence intensity (cell-associated) (J774 foam cells): significantly lower
- fluorescence intensity of 5FAM (cell-associated) (J774 foam cells): significantly higher
- localization of particles on foam cells (J774 foam cells): extracellular, forming a dense layer on the plasma membrane
- PDI after incubation with BODIPY-cholesterol [6]: 0.145
- Zav after incubation with BODIPY-cholesterol ([6]; 2 h at 37° C. in 0.01M KP/DMSO): 708.8 nm
- change in fluorescence after BODIPY-cholesterol binding ([6]; 480/508 nm, signal after minus before binding): most intense signal
- PDI before incubation with BODIPY-cholesterol ([6]; cholesterol-free control): 0.193
- Zav before incubation with BODIPY-cholesterol ([6]; cholesterol-free control, 2 h at 37° C. in 0.01M KP/DMSO): 220.5 nm
- size change / cholesterol binding on incubation with BODIPY-cholesterol [6]: greatest change
- ROS production (mitigation) (SVEC cells [5]): reducing the ROS signal to near the level of the negative media control
- increase in wound closure after 12 h (SVEC cells [3]): 6.41 fold
- increase in wound closure after 24 h (SVEC cells [3]): 4.70 fold

B3: Qβ-4FN: bacteriophage Qβ VLP conjugated to ApoAI peptide 4FN via SM(PEG)4 (conjugate)
chain: AKLETVTLGNIGKDGKQTLVLNPRGVNPTNGVASLSQAGAVPALEKRVTVSVSQPSRNRKNYKVQVKIQNPTACTANGSCDPSVTRQAYADVTFSFTQYSTDEERAFVRTELAALLASPLLIDAIDQLNPAY
peptide: CSGGGDWFKAFYDKVAEKFKEAF
- PDI (DLS) [1]: 0.177
- Zav (hydrodynamic diameter, DLS) [1]: ~40.5 nm
- cholesterol efflux ([2]; upregulated ABCA1 conditions): does not display significant cholesterol efflux
